For the data set, the system named is MS2 coat protein. As to the kind of experiment: apparent KD of MS2 coat protein; designed switch direction (-1 OFF switch, 1 ON switch): -1; higher = weaker reporter binding. A digest of the protocol: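 Each step of the titration lasted 0.8–1.5 h at the lowest concentration and 10–20 min at the highest. The protein, SNAP-549-labelled MS2 coat protein, went from 0.7 or 1.5 nM doubling to 3 µM over RNA switches transcribed on Illumina chips by stalled E. coli RNA polymerase. Normalised cluster fluorescence was curve-fitted, and the per-design median over clusters is given as apparent KD.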

[1] abbreviates: Eterna round: R95, input ligand: FMN 200 uM.
The mark [2] stands for this setting: Eterna round: R95, input ligand: microRNA oligo, concentration not stated.
Where [3] appears, read: Eterna round: R95, input ligand: none.
Where [4] appears, read: input ligand: microRNA oligo, concentration not stated.

Results on 30 sequences are retold here after the supplement of paper PMC9170038.

With “GGCCCUAAGGUCAGAUCCACAAGCUUUUUGCUCGUUUUAACAUGAGGAUCACCCAUGUCUAGUGGAUCUGAUCCUCU [Sensor v3, turn-off variant 2 (MOD of Indiso v.4)] (puzzle: Sensor v3, turn-off variant 2)”, the “apparent KD of MS2 coat protein” value under setting [1] came to 25.2 nM, the “apparent KD of MS2 coat protein” value under setting [2] came out at 15.4 nM and the “apparent KD of MS2 coat protein” value under setting [3] turned out to be 21.6 nM.

For “GUAGAGUGAGGAUAUACGAGAUCGAAAGAUCGGCGAUCCAAACAUGAGGAUCACCCAUGUAGAAGGCACUCUAC [Eli x2 4.006] (Eterna round: R97, puzzle: Exclusion 2)”, the “apparent KD of MS2 coat protein” value worked out at 202 nM (input ligand: FMN 200 uM) and 140 nM (input ligand: none).

On to “UCUGGGUCUGUGAGGAUAUCGGGCCCGAAAGGGCCCGAGAAGGCACAUGAGGAUCACCCAUGUAAGGGCUCGGG [-38.4, -36.3 kcal, A 23%, 0-7bis] (Eterna round: R97, puzzle: Brourd's mod of Exclusion 4)”, for which the “apparent KD of MS2 coat protein” value runs as follows: (input ligand: FMN 200 uM) 20.3 nM; (input ligand: none) 25 nM.

Consider “UUCAUGUGAGGAUAUGUGCAAGACCUAGAGAUUGGGUUUUCACAGAAGGCACAUGAGGAUCACCCAUGUGUUAC [Eternabot (L2) Solution 23] (Eterna round: R97, puzzle: Exclusion 4)”, for which the “apparent KD of MS2 coat protein” value is, setting by setting: (input ligand: FMN 200 uM) 232 nM; (input ligand: none) 126 nM.

Regarding “CCGAGCAUAUGAGGAUCAGACAUGAGGAUCACCCAUGUGCUCCGUCGAAGGAAUAAUCAUAAUGCUGGCUCGUCGUG [Eternabot (L2) Solution 6] (Eterna round: R97, puzzle: Sensor, turn-off variant 1)”, the “apparent KD of MS2 coat protein” value by setting is: (input ligand: FMN 200 uM) 555 nM; (input ligand: none) 457 nM.

On to “UUUUAGUCAGGAUAUACAUGAGGAUCACCCAUGUAAAAUUUUAAUUUAAUUUUAAGGUGUAGAAGGGACAAUCC [Ex3 #12] (Eterna round: R97, puzzle: Exclusion 3)”, for which the “apparent KD of MS2 coat protein” value stood at 43.1 nM (input ligand: FMN 200 uM) and 38.9 nM (input ligand: none).

Consider “AUUGUUUGAUACCUUUAAUACAUGAGGAUCACCCAUGUUAUCGAGGAUAUGUAGAAGAGAUGAGAACAGAAGGCGAAGUAAGAG [JR_ExcNG3_Sub096] (Eterna round: R96, puzzle: Exclusion NG 3)”, for which the “apparent KD of MS2 coat protein” value is, setting by setting: (input ligand: FMN 200 uM) 21.3 nM; under setting [4], 11.1 nM; (input ligand: none) 16.5 nM.

“CAGUACUGAGGAUAUACAUGAGGAUCACCCAUGUCCCAAAAGUAGGAUACUACUAUUAGUAGAAGGCAGUACUG [Fiskers Ex 3 828 mod 25] (Eterna round: R96, puzzle: Exclusion 3)”: the “apparent KD of MS2 coat protein” value reads like this: (input ligand: FMN 200 uM) 498 nM; under setting [4], 43.2 nM; (input ligand: none) 46.1 nM.

For the sequence “CUGUUUUCCGCAGGAUAUGCUCCUCCAUUAUUUGCAGAAGGGCGUUGAACAUGAGGAUCACCCAUGUAUGGAAAUGACUAUUGC [JR_ExcNG1_Sub069] (Eterna round: R96, puzzle: Exclusion NG 1)”, the “apparent KD of MS2 coat protein” value was determined as 19.5 nM (input ligand: FMN 200 uM), 11.2 nM under setting [4] and 16.5 nM (input ligand: none).

Consider “GUUAAGGUAGGAUAUACGAUAAUAUAGGGUAGAUAUAUAACACAUGAGGAUCACCCAUGUAGAAGGACCAAUUG [Mat - Exclusion 2 - Mod of my Tesla design - D53] (puzzle: Exclusion 2)”, for which the “apparent KD of MS2 coat protein” value under setting [2] amounted to 28.5 nM.

In the case of “AGCUAGAUAGGAUAUGCCCGAGAUAACAUGAGGAUCACCCAUGUGACCGAAUCUAAUCUAGCAGAAGGGUUUAGGA [Mod of ViennaUCT 16 - Jieux - Exclusion 5] (Eterna round: R97, puzzle: Exclusion 5)”, the “apparent KD of MS2 coat protein” value reads like this: (input ligand: FMN 200 uM) 15.4 nM; (input ligand: none) 15.1 nM.

On to “ACCGCAAGAGGAUAUACAUGAGGAUCACCCAUGUCGACCGCGAGAGACGUGGACCGGCGUAGAAGGCUUGCCAC [Eternabot (Original) Solution 50] (Eterna round: R97, puzzle: Exclusion 3)”, for which the “apparent KD of MS2 coat protein” value by setting is: (input ligand: FMN 200 uM) 355 nM; (input ligand: none) 56.8 nM.

On to “UGUAAGCUAGGAUAUGCUUUGGGAAAGCAUUCCUUCGAUAAACUUGAGGAUCACCCAAGUAGAAGGAGCUUACA [salish99_ex2_r4_005] (Eterna round: R97, puzzle: Exclusion 2)”, for which the “apparent KD of MS2 coat protein” value reads like this: (input ligand: FMN 200 uM) 20.8 nM; (input ligand: none) 12.4 nM.

As for “ACAUGAGGAUCACCCAUGUGACCAUGAUGGCUGAUGUAGAGCUAGGAUAUGAGUGAAUAUCUAUCUCAGAAGGAGCUUGACUGG [Deportation 48 - Jieux - Exclusion NG 3] (Eterna round: R96, puzzle: Exclusion NG 3)”, the “apparent KD of MS2 coat protein” value by setting is: (input ligand: FMN 200 uM) 16.7 nM; under setting [4], 15.4 nM; (input ligand: none) 21.3 nM.

In the case of “AGUAACAGAGGAUAUACUGUUUUAUGUGUUUGUUAUUUUAAACAUGAGGAUCACCCAUGUAGAAGGCUGAAUGA [JMF 99] (puzzle: Exclusion 2)”, under setting [2], the “apparent KD of MS2 coat protein” value was determined as 24.7 nM.

Regarding “UGUUGUUACGCAGGAUAUCCACCAACAGGUGGAAGGAUAUGUACGCAGAAGGUUCGCCAACAGGCGGAGAAGGGCGGGUUAACA [pwkr exNG2 2xF7 2xFMN.26] (Eterna round: R96, puzzle: Exclusion NG 2)”, the “apparent KD of MS2 coat protein” value by setting is: (input ligand: FMN 200 uM) 178 nM; under setting [4], 63.4 nM; (input ligand: none) 3690 nM.

In the case of “UAAGAGUGAGGAUAUACGUCGCUGGUCCGGAUGGACGCAUGACAUGAGGAUCACCCAUGUAGAAGGCACAAAAC [Enxela] (puzzle: Exclusion 2)”, the “apparent KD of MS2 coat protein” value under setting [2] is 26.8 nM.

“CUGAGCAGACGGAGAUCCAACAUGAGGAUCACCCAUGUCUCAAAAGCUUCUUGCUCGUCUUAUCCUCCUCUGUUCUC [Maeronqu] (puzzle: Sensor v3, turn-off variant 1)”: the “apparent KD of MS2 coat protein” value amounted to 36.8 nM under setting [1], 215 nM under setting [2] and 33.1 nM under setting [3].

With “AUAAAAUAGGAGGAUAUCGUAUCGGAAACGAUACGAGAAGGUCUAACAUGAGGAUCACCCAUGUUCCUCAAUAA [Mat - Exclusion 6 - Eli Mod - D46] (puzzle: Exclusion 6)”, the “apparent KD of MS2 coat protein” value under setting [1] is 142 nM, the “apparent KD of MS2 coat protein” value under setting [2] is 36.3 nM and the “apparent KD of MS2 coat protein” value under setting [3] was 37.6 nM.

Regarding “CUUUUGUGAGGAUAUUAGUAGUAAAUAAAUAAAAUUACUACUUAGAAGGCACAUGAGGAUCACCCAUGUUCCUC [salish99_ex4_r3_043] (puzzle: Exclusion 4)”, under setting [2], the “apparent KD of MS2 coat protein” value came to 28.3 nM.

Turning to “AGUAUGCGGCAGGAUAUCCAUCCGCGGUGAGGUGGAGAAGGGCUGACAUGAGGAUCACCCAUGUGCGUCCUGUA [salish99_ex6_r4_027] (Eterna round: R97, puzzle: Exclusion 6)”, the “apparent KD of MS2 coat protein” value (input ligand: FMN 200 uM) worked out at 29.4 nM and the “apparent KD of MS2 coat protein” value (input ligand: none) worked out at 21 nM.

As to “AUUUUAACAUAGGAUAUCGAAUUUAUUAUUUAACGAGAAGGAUGAACAUGAGGAUCACCCAUGUGGUAUCAUGA [Mat - Exclusion 6 - JL Mod - D21] (puzzle: Exclusion 6)”, the “apparent KD of MS2 coat protein” value is, setting by setting: under setting [1], 72.8 nM; under setting [2], 40.6 nM; under setting [3], 45.9 nM.

With “AAAAGUUUUCAGGAUAUGUGCGAUUAAUAUCGUGCAGAAGGGAGGACAUGAGGAUCACCCAUGUUGAAGACAAC [Omei Ex6 A18] (Eterna round: R97, puzzle: Exclusion 6)”, the “apparent KD of MS2 coat protein” value (input ligand: FMN 200 uM) was determined as 66.1 nM and the “apparent KD of MS2 coat protein” value (input ligand: none) was 80.2 nM.

For the sequence “GGUCAUCAAGUCAGGAUAUCGUCAAAUCAAUCAGGCGAGAAGGGACAUGAGGAUCACCCAUGUCGACUCAUCAG [Ex4 #5] (Eterna round: R97, puzzle: Brourd's mod of Exclusion 4)”, the “apparent KD of MS2 coat protein” value (input ligand: FMN 200 uM) was 123 nM and the “apparent KD of MS2 coat protein” value (input ligand: none) worked out at 34.3 nM.

As to “UGAGUGCUGCGAGGAUAUACAUGAGGAUCACCCAUGUAAUCGUGUGAGGCUAUGCCUCACACGAAGUAGAAGGCGCAGUACUCU [Mat - Exclusion NG 2 - Mod of JL - D16] (Eterna round: R96, puzzle: Exclusion NG 2)”, the “apparent KD of MS2 coat protein” value was determined as 9.98 nM (input ligand: FMN 200 uM), 8.33 nM under setting [4] and 9.63 nM (input ligand: none).

Regarding “AUAAGGUCAGGAUAUGCUUGGCUGAUUCUGGUGUCCAAAUGACAUGAGGAUCACCCAUGUAGAAGGGACAUCAG [Usgeledi] (Eterna round: R97, puzzle: Exclusion 2)”, the “apparent KD of MS2 coat protein” value (input ligand: FMN 200 uM) amounted to 16.1 nM and the “apparent KD of MS2 coat protein” value (input ligand: none) was determined as 15.1 nM.

With “UUAAAUCAUGUAGGAUAUGCGUGGCGAAGCUAUGCAGAAGGACAUGAGGAUCACCCAUGUGCUUCCGUCUGCGUACAGAUGGUA [JL ENG1 1.13] (Eterna round: R96, puzzle: Exclusion NG 1)”, the “apparent KD of MS2 coat protein” value is, setting by setting: (input ligand: FMN 200 uM) 315 nM; under setting [4], 52.7 nM; (input ligand: none) 62.5 nM.

Turning to “UAGAUACAUGAGGAUCACCCAUGUGAGGAUAUGAGAAUUAUAUUAAAUGAAUGUAGUAUCAGAAGGCACAAAGG [JR_Ex1_Sub049] (Eterna round: R97, puzzle: Exclusion 1)”, the “apparent KD of MS2 coat protein” value is, setting by setting: (input ligand: FMN 200 uM) 197 nM; (input ligand: none) 130 nM.

Consider “UCACGGGACUGAGGAUAUACAUCAACCAUGGUUGUAGAAGGCAGAAGGUUGGAUCAUACACUAAACAUGAGGAUCACCCAUGUU [JR_ExcNG1_Sub029] (Eterna round: R96, puzzle: Exclusion NG 1)”, for which the “apparent KD of MS2 coat protein” value reads like this: (input ligand: FMN 200 uM) 17.7 nM; under setting [4], 16.8 nM; (input ligand: none) 21.6 nM.

For the sequence “CAGGUCUGAAAGGAUAUCCACGCCUGCGGGCCAGGAGAAGGUUCGACUUGAGGAUCACCCAAGUGCCGAGUCCA [Ervezaar] (Eterna round: R97, puzzle: Exclusion 6)”, the “apparent KD of MS2 coat protein” value is, setting by setting: (input ligand: FMN 200 uM) 33.2 nM; (input ligand: none) 20.6 nM.
